According to paper PMC13137973:
pIC50, pKd: −log10 of the molar value.

Experiments:
[1] = target: Biotinylated human TNFR2 protein (human) (UniProt P20333); assay: BLI
[2] = target: human immunodeficiency virus 1 (HIV-1) (group M, subtype B, Isolate MN) gp120 Protein (HIV-1 (group M, subtype B, isolate MN)) (UniProt P05877); assay: flow cytometry on cells

Chain of recombinant TNFR2 protein (soluble, exogenous) (P20333 23-257): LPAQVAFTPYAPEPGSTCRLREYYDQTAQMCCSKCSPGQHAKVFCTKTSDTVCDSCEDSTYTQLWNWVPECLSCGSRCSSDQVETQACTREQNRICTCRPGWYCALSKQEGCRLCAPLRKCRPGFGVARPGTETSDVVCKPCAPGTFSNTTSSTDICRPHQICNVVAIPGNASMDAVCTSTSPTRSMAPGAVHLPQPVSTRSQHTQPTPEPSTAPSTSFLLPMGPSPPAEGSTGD
Chain of Biotinylated human TNFR2 protein (human) (P20333 23-257): as above

Substance	pKd [1]	pIC50 [2]	reduction in gp120 binding to Jurkat cells [2] [%]
human immunodeficiency virus 1 (HIV-1) (group M, subtype B, Isolate MN) gp120 Protein (from UniProt P05877 30-513) (natural protein)	7.06	–	–
recombinant TNFR2 protein (soluble, exogenous) (from UniProt P20333-1 23-257) (domain or fragment)	–	6.97	65
